Patent US20250129174A1 (LTZ THERAPEUTICS, published 2025)

B1: 4-1BB-2×CCR8-2 (HC) BsAb (bispecific antibody, human IgG1, kappa)
heavy: not shown
light: DIVMTQTPLSLSVTPGQPASISCRSSQSLFHSSGNTYLHWYLQKPGQPPQLLIYKVSNRFSGVPDRFSGSGSGTDFTLKISRVEAEDVGVYYCSQSTHVPFTFGQGTKLEIKRTVAAPSVFIFPPSDEQLKSGTASVVCLLNNFYPREAKVQWKVDNALQSGNSQESVTEQDSKDSTYSLSSTLTLSKADYEKHKVYACEVTHQGLSSPVTKSFNRGEC
notes: The light chain is the CCR8-2 kappa light chain; also called 4-1BB-2×CCR8-2 (HC) bispecific antibody
B2: 4-1BB-2×CCR8-2 (LC1) BsAb (bispecific antibody, human IgG1, kappa)
heavy: not shown
light: DVVLTQSPLSLPVTLGQPASISCRSSQSLLDSDGNTYLYWFQQRPGQSPRRLIYLVSNLGSGVPDRFSGSGSGTDFTLKISRVEAEDVGVYYCMQPTHAPYTFGQGTKLEIKGGGGSGGGGSGGGGSGGGGSEVQLVQSGAEVKKPGSSVKVSCKASDYTFNDYWVSWVRQAPGQGLEWIGEIYPNSGATNFNGKFRGRATLTVDNSASTAYMELSSLRSEDTAVYYCTREYTRDWFAYWGQGTLVTVSSGGGGSGGGGSGGGGSDIVMTQTPLSLSVTPGQPASISCRSSQSLFHSSGNTYLHWYLQKPGQPPQLLIYKVSNRFSGVPDRFSGSGSGTDFTLKISRVEAEDVGVYYCSQSTHVPFTFGQGTKLEIKRTVAAPSVFIFPPSDEQLKSGTASVVCLLNNFYPREAKVQWKVDNALQSGNSQESVTEQDSKDSTYSLSSTLTLSKADYEKHKVYACEVTHQGLSSPVTKSFNRGEC
notes: The light chain is the 4-1BB-2 scFv (VL-linker-VH) joined by a linker to the N-terminus of the CCR8-2 kappa light chain; also called 4-1BB-2×CCR8-2 (LC1) bispecific antibody
B3: 4-1BB-2×CCR8-2 (LC2) BsAb (bispecific antibody, human IgG1, kappa)
heavy: not shown
light: DIVMTQTPLSLSVTPGQPASISCRSSQSLFHSSGNTYLHWYLQKPGQPPQLLIYKVSNRFSGVPDRFSGSGSGTDFTLKISRVEAEDVGVYYCSQSTHVPFTFGQGTKLEIKRTVAAPSVFIFPPSDEQLKSGTASVVCLLNNFYPREAKVQWKVDNALQSGNSQESVTEQDSKDSTYSLSSTLTLSKADYEKHKVYACEVTHQGLSSPVTKSFNRGECGGGGSGGGGSGGGGSDVVLTQSPLSLPVTLGQPASISCRSSQSLLDSDGNTYLYWFQQRPGQSPRRLIYLVSNLGSGVPDRFSGSGSGTDFTLKISRVEAEDVGVYYCMQPTHAPYTFGQGTKLEIKGGGGSGGGGSGGGGSGGGGSEVQLVQSGAEVKKPGSSVKVSCKASDYTFNDYWVSWVRQAPGQGLEWIGEIYPNSGATNFNGKFRGRATLTVDNSASTAYMELSSLRSEDTAVYYCTREYTRDWFAYWGQGTLVTVSS
notes: The light chain is the CCR8-2 kappa light chain with the 4-1BB-2 scFv (VL-linker-VH) joined by a linker to its C-terminus; also called 4-1BB-2×CCR8-2 (LC2) bispecific antibody

Tests used:
[1] = target: T1, human CCR8 (human, UniProt P51685 1-355); test: flow cytometry on CHO cells expressing human CCR8, MFI of PE
T1 construct: whole, on cells; The construct expressed in the CHO cells is not described further; also called hCCR8; C-C motif chemokine receptor 8
Description: Binding abilities of 4-1BB×CCR8 bispecific antibodies to CHO cells expressing human CCR8 were evaluated. About 50,000 CHO cells expressing human CCR8 were incubated with serially diluted antibodies (4-1BB-2×CCR8-2 (LC1) BsAb, 4-1BB-2×CCR8-2 (LC2) BsAb and 4-1BB-2×CCR8-2 (HC) BsAb) in FACS buffer (PBS+0.5% BSA) for 30 minutes on ice. After incubation, cells were washed twice and detected with […] The mean fluorescence intensity (MFI of PE) of each antibody was determined and plotted using GraphPad Prism software (Version 9.4.1; GraphPad Software Inc.). As shown in FIGS. 13A-13B, all the three 4-1BB×CCR8 bispecific antibodies bind to CHO cells expressing human CCR8 very well.

[2] = target: T2, human 4-1BB (human, UniProt Q07011 24-255); test: flow cytometry on CHO cells expressing human 4-1BB, anti-human IgG PE secondary antibody, percent of positive cells
T2 construct: whole, on cells; The construct expressed in the CHO cells is not described further; also called h4-1BB; CD137
Description: Binding abilities of 4-1BB×CCR8 bispecific antibodies (BsAb) to CHO cells expressing human 4-1BB were evaluated. About 50,000 CHO cells expressing human 4-1BB were incubated with serially diluted antibodies (4-1BB-2×CCR8-2 (LC1) BsAb, 4-1BB-2×CCR8-2 (LC2) BsAb, and 4-1BB-2×CCR8-2 (HC) BsAb) in FACS buffer (PBS+0.5% BSA) for 30 minutes on ice. After incubation, cells were washed twice and detected with anti-human IgG PE secondary antibody (Jackson ImmunoResearch, Cat. #: 109-116-170). […] As shown in FIGS. 12A-12B, all the three 4-1BB×CCR8 bispecific antibodies bind to CHO cells expressing human 4-1BB very well.

[3] = target: T1, human CCR8; test: flow cytometry on CHO cells expressing human CCR8, percent of positive cells
Description: Binding abilities of 4-1BB×CCR8 bispecific antibodies to CHO cells expressing human CCR8 were evaluated. About 50,000 CHO cells expressing human CCR8 were incubated with serially diluted antibodies (4-1BB-2×CCR8-2 (LC1) BsAb, 4-1BB-2×CCR8-2 (LC2) BsAb and 4-1BB-2×CCR8-2 (HC) BsAb) in FACS buffer (PBS+0.5% BSA) for 30 minutes on ice. […] As shown in FIGS. 13A-13B, all the three 4-1BB×CCR8 bispecific antibodies bind to CHO cells expressing human CCR8 very well.

T1 sequence (P51685 whole entry): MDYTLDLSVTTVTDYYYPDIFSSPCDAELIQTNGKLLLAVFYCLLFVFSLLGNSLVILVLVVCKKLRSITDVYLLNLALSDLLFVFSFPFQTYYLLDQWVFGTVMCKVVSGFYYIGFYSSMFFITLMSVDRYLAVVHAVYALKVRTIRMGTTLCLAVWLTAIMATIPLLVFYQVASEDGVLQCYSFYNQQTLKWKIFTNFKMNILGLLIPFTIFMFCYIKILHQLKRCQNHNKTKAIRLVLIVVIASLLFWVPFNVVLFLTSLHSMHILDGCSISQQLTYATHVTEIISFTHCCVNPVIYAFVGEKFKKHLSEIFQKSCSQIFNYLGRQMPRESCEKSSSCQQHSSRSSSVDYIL
T2 sequence (Q07011 24-255): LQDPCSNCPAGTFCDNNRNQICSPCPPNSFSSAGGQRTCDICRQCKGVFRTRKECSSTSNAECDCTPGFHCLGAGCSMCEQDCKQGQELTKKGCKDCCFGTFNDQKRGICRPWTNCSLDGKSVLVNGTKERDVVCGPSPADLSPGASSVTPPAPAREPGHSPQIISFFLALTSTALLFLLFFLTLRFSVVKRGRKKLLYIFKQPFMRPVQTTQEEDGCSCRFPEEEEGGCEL

| Binder | binding result [1] | EC50 (read off the curve) [2] | EC50 (read off the curve) [1] | EC50 (read off the curve) [3] |
| --- | --- | --- | --- | --- |
| B1 | binds | ~0.7 nM | – | – |
| B2 | – | ~0.06 nM | ~2 nM | ~0.3 nM |
| B3 | binds | ~0.7 nM | – | – |
